Format in all cases: binding
Test [1] addresses T1, RGS4 A71C, -7C (Rattus norvegicus, UniProt P49799, C132A/C148A/C183A/C197A/C204A/C95A).
T1 construct: made in house
In words: FCPIA, RGS4 A71C in the -7C. As to conditions: read-out: Gαo affinity. On the procedure: (§1) Figure 5 Dose curves of 5nd on various RGS4 cysteine mutants. Various concentrations of 5nd were tested for disruption of the RGS4-Gαo interaction for C95A (5 nM), or […], C71A (5nM) or C148A (5nM) (B), A95C in the -7C (5nM), or A132C in the -7C (5nM) (C), A71C in the -7C (5nM), or A148C in the -7C (5nM) (D) or the mutant with no cysteines in the domain (20 nM) or the C-terminus (20 nM) (E) in the FCPIA (mean ± S.E.M., n ≥ 3).
(§2) The previous experiments tested which cysteines are necessary for inhibition by 5nd. In an alternative approach, we added cysteines back to the -7C mutant to determine which might be sufficient for 5nd activity. […] Furthermore, Cys132 is involved in the actions but this is clearly not sufficient to explain them. Thus it is concluded that 5nd is at least partially non-selective in its cysteine modification.
(§3) Proteins were expressed, purified and labeled as described previously. The mutagenesis was done using the "QuickChange Multi Site-Directed Mutagenesis Kit" from Stratagene according to the manufacturer's protocol. The construct of RGS4 used in these studies is a maltose binding protein (MBP-) fusion protein of the RGS4 sequence from which the amphipathic N-terminal helix has been removed (i.e. MBP-RGS4Δ51N). For simplicity in the text, this will be referred to as RGS4. […]

For test [2], the target named is T2, RGS4 C71A (Rattus norvegicus, UniProt P49799, C71A).
T2 construct: made in house
T2 sequence (P49799 52-205 C71A limits assumed): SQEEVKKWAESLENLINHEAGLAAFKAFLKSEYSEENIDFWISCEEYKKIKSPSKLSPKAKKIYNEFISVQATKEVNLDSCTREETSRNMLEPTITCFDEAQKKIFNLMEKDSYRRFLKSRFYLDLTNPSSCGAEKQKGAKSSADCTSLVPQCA
In words: FCPIA, RGS4 cysteine mutant C71A. As to conditions: read-out: Gαo affinity. On the procedure: as §1
(§4) Proteins were expressed, purified and labeled as described previously. The mutagenesis was done using the "QuickChange Multi Site-Directed Mutagenesis Kit" from Stratagene according to the manufacturer's protocol. The construct of RGS4 used in these studies is a maltose binding protein (MBP-) fusion protein of the RGS4 sequence from which the amphipathic N-terminal helix has been removed (i.e. MBP-RGS4Δ51N). For simplicity in the text, this will be referred to as RGS4. All other RGS proteins were human sequences and were used as Mpb fusions: RGS7 RGS domain (aa: 305–453), RGS8 full length, RGS16 full length, and RGS19ΔC11 (amino acids 1–209). To cleave RGS4Δ51N from the MBP-His6 construct for MS analysis, MBP-His6-RGS4Δ51N was treated with 15% MBP-His6-TEV protease S219V [11] for 22 hours at 4°C and purified over a Ni-NTA column.
(§5) FCPIA was performed as previously published.

Test [3] addresses T3, RGS4 no Cys in RGS domain (Rattus norvegicus, UniProt P49799, C132A/C148A/C71A/C95A).
T3 construct: made in house
Description: FCPIA, RGS4 mutant with no Cys in RGS domain. As to conditions: no Cys in RGS domain; read-out: Gαo affinity. Here is the method:
(§6) Since 5nd forms an irreversible, DTT-sensitive bond with RGS, it was suspected that it binds covalently to a cysteine in the protein through a disulfide bridge. Indeed, removal of all 7 cysteines (termed the -7C mutant) from RGS4 greatly diminished 5nd activity (logIC50 of -3.24 ± 0.14 for -7C vs. -4.36 ± 0.02 for wild type) (Figure 5, Table 2).
as §1, §3

Test [4] addresses T4, RGS4 -7C (Rattus norvegicus, UniProt P49799, C132A/C148A/C183A/C197A/C204A/C71A/C95A).
T4 construct: made in house
In words: FCPIA, RGS4 -7C mutant (all 7 cysteines removed). As to conditions: read-out: Gαo affinity. Here is the method: as §6, §1, §3

The target of test [5] is T5, RGS4 A132C, -7C (Rattus norvegicus, UniProt P49799, C148A/C183A/C197A/C204A/C71A/C95A).
T5 construct: made in house
T5 sequence (P49799 52-205 C71A/C95A/C148A/C183A/C197A/C204A): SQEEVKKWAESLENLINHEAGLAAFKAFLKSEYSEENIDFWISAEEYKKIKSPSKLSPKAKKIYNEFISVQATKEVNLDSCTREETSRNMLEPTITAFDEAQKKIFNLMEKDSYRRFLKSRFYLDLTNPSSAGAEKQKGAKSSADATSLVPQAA
Description: FCPIA, RGS4 A132C in the -7C. As to conditions: read-out: Gαo affinity. On the procedure:
as §1, §2, §3

Test [6] concerns the target T6, RGS4 C95A (Rattus norvegicus, UniProt P49799, C95A).
T6 construct: made in house
T6 sequence (P49799 52-205 C95A limits assumed): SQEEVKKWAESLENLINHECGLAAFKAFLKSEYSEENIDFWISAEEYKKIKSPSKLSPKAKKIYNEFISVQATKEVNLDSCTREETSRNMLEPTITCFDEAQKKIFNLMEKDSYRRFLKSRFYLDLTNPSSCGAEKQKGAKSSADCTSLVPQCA
Description: FCPIA, RGS4 cysteine mutant C95A. As to conditions: read-out: Gαo affinity. On the procedure: as §1, §4, §5

Test [7] deals with RGS4 no Cys in C-terminus. Description: FCPIA, RGS4 mutant with no Cys in C-terminus. As to conditions: read-out: Gαo affinity. Here is the method:
as §6, §1, §3

Test [8] concerns the target T7, RGS4 A95C, -7C (Rattus norvegicus, UniProt P49799, C132A/C148A/C183A/C197A/C204A/C71A).
T7 construct: made in house
Description: FCPIA, RGS4 A95C in the -7C. As to conditions: read-out: Gαo affinity. Here is the method: as §1, §2, §3

Test [9] concerns the target T8, RGS4 A148C, -7C (Rattus norvegicus, UniProt P49799, C132A/C183A/C197A/C204A/C71A/C95A).
T8 construct: made in house
T8 sequence (P49799 52-205 C71A/C95A/C132A/C183A/C197A/C204A): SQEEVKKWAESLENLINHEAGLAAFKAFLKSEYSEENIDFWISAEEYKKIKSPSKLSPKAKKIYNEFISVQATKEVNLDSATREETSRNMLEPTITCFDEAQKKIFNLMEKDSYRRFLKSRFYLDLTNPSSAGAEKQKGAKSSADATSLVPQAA
In words: FCPIA, RGS4 A148C in the -7C. As to conditions: read-out: Gαo affinity. Here is the method: as §1, §2, §3

Test [10] deals with T9, RGS4 C148A (Rattus norvegicus, UniProt P49799, C148A).
T9 construct: made in house
T9 sequence (P49799 52-205 C148A limits assumed): as the sequence (P49799 52-205 C71A/C95A/C148A/C183A/C197A/C204A) above, with A20C, A44C, A132C, A146C, A153C counted along it
In words: FCPIA, RGS4 cysteine mutant C148A. As to conditions: read-out: Gαo affinity. On the procedure:
as §1, §4, §5

The target of test [11] is T10, RGS4 (Rattus norvegicus, UniProt P49799).
T10 construct: made in house
T10 sequence (P49799 52-205 limits assumed): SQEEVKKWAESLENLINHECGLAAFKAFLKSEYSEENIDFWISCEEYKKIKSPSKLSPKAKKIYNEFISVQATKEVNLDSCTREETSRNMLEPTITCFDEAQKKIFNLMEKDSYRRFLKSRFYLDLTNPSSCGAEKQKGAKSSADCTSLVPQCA
Description: FCPIA (flow cytometry protein interaction assay), RGS4-Gαo interaction, wild type RGS4 (MBP-RGS4Δ51N). As to conditions: wild type RGS4Δ51N, calculated in the FCPIA; read-out: Gαo affinity.

The target of test [12] is T11, RGS4 C132A (Rattus norvegicus, UniProt P49799, C132A).
T11 construct: made in house
T11 sequence (P49799 52-205 C132A limits assumed): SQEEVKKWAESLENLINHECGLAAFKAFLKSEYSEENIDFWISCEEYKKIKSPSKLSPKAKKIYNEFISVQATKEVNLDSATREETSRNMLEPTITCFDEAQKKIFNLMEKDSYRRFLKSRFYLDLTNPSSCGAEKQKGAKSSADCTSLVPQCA
In words: FCPIA, RGS4 cysteine mutant C132A. As to conditions: read-out: Gαo affinity. Here is the method:
as §1, §4, §5

T4 sequence (P49799 52-205 C71A/C95A/C132A/C148A/C183A/C197A/C204A): as the sequence (P49799 52-205 C71A/C95A/C148A/C183A/C197A/C204A) above, with C81A counted along it
T3 sequence (P49799 52-205 C71A/C95A/C132A/C148A limits assumed): as the sequence (P49799 52-205 C71A/C95A/C148A/C183A/C197A/C204A) above, with C81A, A132C, A146C, A153C counted along it
T1 sequence (P49799 52-205 C95A/C132A/C148A/C183A/C197A/C204A): as the sequence (P49799 52-205 C71A/C95A/C148A/C183A/C197A/C204A) above, with A20C, C81A counted along it
T7 sequence (P49799 52-205 C71A/C132A/C148A/C183A/C197A/C204A): as the sequence (P49799 52-205 C71A/C95A/C148A/C183A/C197A/C204A) above, with A44C, C81A counted along it

B1: Gαo: Alexa Fluor 532-labeled Gα subunit, binding partner of RGS proteins in the FCPIA (protein)
chain: MGCTLSAEERAALERSKAIEKNLKEDGISAAKDVKLLLLGAGESGKSTIVKQMKIIHEDGFSGEDVKQYKPVVYSNTIQSLAAIVRAMDTLGVEYGDKERKADSKMVCDVVSRMEDTEPFSAELLSAMMRLWGDSGIQECFNRSREYQLNDSAKYYLDSLDRIGAADYQPTEQDILRTRVKTTGIVETHFTFKNLHFRLFDVGGQRSERKKWIHCFEDVTAIIFCVALSGYDQVLHEDETTNRMHESLMLFDSICNNKFFIDTSIILFLNKKDLFGEKIKKSPLTICFPEYPGSNTYEDAAAYIQTQFESKNRSPNKEIYCHMTCATDTNNIQVVFDAVTDIIIANNLRGCGLY
modifications: Alexa Fluor 532 label (sites not given)
Consider B1, for which the Kd in test [1] came to 9.2 ± 2 nM; in [2] it was 12.2 ± 1.8 nM; in test [3] it was 3.9 ± 0.8 nM; in [4] it was 8.3 ± 1 nM; in [5], 12.5 ± 1 nM; in test [6], 8.17 ± 1.5 nM. The Kd in test [7] was 5 ± 0.7 nM; in [8], 12 ± 2 nM; in [9], 5.7 ± 0.2 nM; in [10] it was 6.84 ± 1 nM; in test [11], 11.6 ± 1.4 nM; in test [12] it was 7.9 ± 3.1 nM.

Source of the values: PMC2700083, “A covalent peptide inhibitor of RGS4 identified in a focused one-bead, one compound library screen” (BMC Pharmacology, 2009).
